Assays:
EphB2 = target: T1, EphB2 (Homo sapiens, UniProt P29323); assay: EphB2 immunoprecipitation and phosphotyrosine immunoblot; type: cell-based; details: HRMEC; Fc fusion proteins 500 ng ml^−1
T1 construct: EphB2 receptor immunoprecipitates (from HRMEC); endogenous in cells; host or cells: HRMEC
T1 sequence (P29323 19-1055): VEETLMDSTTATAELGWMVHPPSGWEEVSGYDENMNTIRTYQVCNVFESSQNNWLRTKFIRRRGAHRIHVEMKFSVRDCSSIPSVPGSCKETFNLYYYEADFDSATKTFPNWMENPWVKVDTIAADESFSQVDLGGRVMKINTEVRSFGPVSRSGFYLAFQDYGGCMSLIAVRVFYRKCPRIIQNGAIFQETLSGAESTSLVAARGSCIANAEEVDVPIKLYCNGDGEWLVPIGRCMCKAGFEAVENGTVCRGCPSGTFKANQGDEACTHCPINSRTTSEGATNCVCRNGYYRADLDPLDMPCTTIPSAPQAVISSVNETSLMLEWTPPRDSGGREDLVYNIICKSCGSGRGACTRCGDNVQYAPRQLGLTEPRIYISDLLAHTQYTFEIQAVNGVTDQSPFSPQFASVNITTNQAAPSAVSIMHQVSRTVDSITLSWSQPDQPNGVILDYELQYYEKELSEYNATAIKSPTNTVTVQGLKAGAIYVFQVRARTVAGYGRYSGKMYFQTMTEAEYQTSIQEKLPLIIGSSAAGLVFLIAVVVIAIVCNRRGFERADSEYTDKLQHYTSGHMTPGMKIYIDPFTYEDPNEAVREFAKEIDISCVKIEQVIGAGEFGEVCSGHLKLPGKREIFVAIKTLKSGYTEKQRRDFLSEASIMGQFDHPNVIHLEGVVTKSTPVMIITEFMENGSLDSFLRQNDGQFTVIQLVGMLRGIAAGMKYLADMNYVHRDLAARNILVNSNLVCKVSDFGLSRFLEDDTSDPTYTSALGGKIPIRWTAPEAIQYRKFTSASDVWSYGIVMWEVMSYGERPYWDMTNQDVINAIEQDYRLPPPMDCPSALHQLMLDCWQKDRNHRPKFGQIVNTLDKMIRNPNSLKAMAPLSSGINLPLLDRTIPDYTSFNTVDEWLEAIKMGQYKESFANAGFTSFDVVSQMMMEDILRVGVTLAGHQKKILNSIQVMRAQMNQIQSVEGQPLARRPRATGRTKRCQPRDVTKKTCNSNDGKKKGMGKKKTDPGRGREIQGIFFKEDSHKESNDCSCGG
Protocol: Ligand stimulation and immunoprecipitation of endogenous EphB receptors. Primary HRMEC were used at passages 3-6, as described (12). P19 cells were cultured as recommended (ATCC, Rockville, Md.). Ninety min prior to ligand stimulation, cells (2×10^5cells/60 mm dish) were plated on Matrigel-(Collaborative Biomedical Products, Becton Dickinson, Bedford, Mass., as recommended) or fibronectin-coated (29) dishes. Ligand (ephrin-B1/Fc) or control (ORF/Fc) (30) multimers were generated by preincubation with anti-Fc at a fixed ratio of 0.1× the indicated concentrations of Fc fusion proteins [50 ng ml^−1 anti-Fc for 500 ng ml^−1 Fc fusion protein]. If not otherwise indicated, Fc fusion proteins (ephrinB1/Fc or ORF/Fc) were used at 500 ng ml^−1 in the absence or presence of preclustering anti-Fc at 50 ng ml^−1. Cells were incubated with agonists at 37° C. for 10 min, or as described in the figure legends. Immunoprecipitations were conducted on either cell lysates (P19) or on Triticum vulgaris lectin affinity purified fractions of HRMEC (15) (needed to reduce the background from Matrigel). Precipitated proteins were analyzed by immunoblot (15).
EphB1 and EphB2 immunoprecipitates from HRMEC stimulated with dimeric or multimeric (+anti-Fc) ephrin-B1/Fc were analyzed for receptor activation (anti-PY), and coprecipitation of heteromeric receptors (anti-EphB1, or anti-EphB2). […]

HRMEC = assay: Cell adhesion assay (HRMEC); type: cell-based, human; details: 90 min after plating
Protocol: Cell adhesion assay. Six well plates (Falcon) were coated with thin layers of Matrigel or with 0.5 μg cm^2 fibronectin (29). Growth medium was replaced 48 h before harvest with binding medium, either DMEM (HRMEC) or ∝-MEM (P19) containing 1% bovine albumin. Cells were recovered by trypsinization (HRMEC) or vigorous tituration (P19) and washed three times with binding medium and plated at 1×10^5 cells per well. Ligands were added coincident with plating at concentrations indicated above. After 90 min, unattached cells were dislodged by applying 4 brisk slaps of the plate on a horizontal surface, and the attached cell layer was carefully washed once with PBS containing calcium and magnesium to collect the remaining unattached cells. Attached cells were collected after incubation in Dispase (Collaborative Biomedical Products). Separate fractions were recovered by centrifugation, washed once and trypan blue excluding cells counted visually using a hemocytomer. The ratio of attached to total number of cells recovered were calculated for each of three wells. Data are expressed as mean+/−SEM and are representative of three independent experiments.

P19 cells = assay: P19 attachment to nitrocellulose coated surfaces preadsorbed with ligand and fibronectin; type: cell-based, murine; details: 500 ng/well ligand with fibronectin 500 ng/well on nitrocellulose, 90 min at 37° C.
Protocol: Specifically, nitrocellulose coated surfaces were preadsorbed with 500 ng/well of non-denatured ephrin-B1/Fc, either as dimer (LERK-2/Fc) or preclustered multimer (LERK2/FC+anti-Fc) or control protein (anti-Fc, BSA), with fibronectin (500 ng/well). P19 cells were plated and the % attached cells were assayed after a 90 min incubation at 37° C.

tyrosine phosphorylation of EphB2 (EphB2): stimulated
B1: ephrin-B1/Fc dimers: disulfide-linked immunoglobulin Fc fusion form of ephrin-B1 (protein)
chain: LAKNLEPVSWSSLNPKFLSGKGLVIYPKIGDKLDIICPRAEAGRPYEYYKLYLVRPEQAAACSTVLDPNVLVTCNRPEQEIRFTIKFQEFSPNYMGLEFKKHHDYYITSTSNGSLEGLENREGGVCRTRTMKIIMKVGQDPNAVTPEQLTTSRPSKEADNTVKMATQAPGSRGSLGDSDGKHETVNQEEKSGPGASGGSSGDPDGFFNSK
modifications: left off: a dimerising Fc or GST
HRMEC attachment to Matrigel- and fibronectin-coated surfaces (HRMEC): did not
attachment of cells in preadsorbed wells (P19 cells): approximately 40%

— patent US20030157712A1, “Methods for determining cell responses through EphB receptors” (priority 1997, published 2003)
